Results from ChEMBL document CHEMBL3826949, “Characterization of the action of tyrosinase on resorcinols” (Bioorg Med Chem, 2016).
Activity calls are given as the source filed them. The calls are words filed in the database; no cut-off is given here.

What was measured:
Tyrosinase [1] = target: T1, Tyrosinase (Agaricus bisporus, UniProt O42713); assay: Inhibition of mushroom tyrosinase using L-tyrosine as substrate assessed as monophenolase activity by spectrophotometric analysis
T1 sequence (O42713 whole entry): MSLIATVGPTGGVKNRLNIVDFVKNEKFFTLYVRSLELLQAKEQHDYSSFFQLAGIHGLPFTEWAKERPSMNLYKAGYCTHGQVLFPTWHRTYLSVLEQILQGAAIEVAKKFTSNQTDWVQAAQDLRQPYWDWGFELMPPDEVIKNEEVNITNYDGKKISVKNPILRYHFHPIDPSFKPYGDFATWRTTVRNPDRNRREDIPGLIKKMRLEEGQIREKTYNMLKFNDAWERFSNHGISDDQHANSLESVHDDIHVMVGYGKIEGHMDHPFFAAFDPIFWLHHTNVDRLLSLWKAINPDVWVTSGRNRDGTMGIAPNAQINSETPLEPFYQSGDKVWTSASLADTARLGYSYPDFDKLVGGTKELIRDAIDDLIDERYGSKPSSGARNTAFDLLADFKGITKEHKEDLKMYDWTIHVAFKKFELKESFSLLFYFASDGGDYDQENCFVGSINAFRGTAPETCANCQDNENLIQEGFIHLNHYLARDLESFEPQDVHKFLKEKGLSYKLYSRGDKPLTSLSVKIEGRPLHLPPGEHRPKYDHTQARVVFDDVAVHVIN

[2] = target: T2, Tyrosinase (Agaricus bisporus) (UniProt O42713); assay: Inactivation of mushroom tyrosinase using TBC as substrate assessed as reduction in p-quinone accumulation pre-incubated at 0.3 mM for longer time duration during 0 to 500 secs by spectrophotometric analysis
T2 sequence (whole entry): T1 sequence (O42713 whole entry)

Tyrosinase [3] = target: T1, Tyrosinase; assay: Inhibition of mushroom tyrosinase using L-dopa as substrate assessed as diphenolase activity by spectrophotometric analysis
[4] = target: T2, Tyrosinase (Agaricus bisporus); assay: Inactivation of mushroom tyrosinase using TBC as substrate assessed as reduction in p-quinone accumulation pre-incubated at 0.3 mM for shorter time duration during 0 to 500 secs by spectrophotometric analysis
[5] = target: T2, Tyrosinase (Agaricus bisporus); assay: Activity of mushroom tyrosinase using TBC as substrate assessed as accumulation of p-quinone in presence of H2O2 spectrophotometric analysis
[6] = target: T2, Tyrosinase (Agaricus bisporus); conditions: 30 uM
Description: Inhibition of mushroom tyrosinase activity using TBC as substrate assessed as recovery of enzyme activity at 30 uM preincubated for 60 mins

[7] = target: T2, Tyrosinase (Agaricus bisporus); assay: Substrate activity at mushroom tyrosinase using TBC as substrate assessed as increase in TBC oxidation at 0.05 to 0.50 mM by spectrophotometric analysis
[8] = substrate: Oc1cccc(O)c1; assay: (§1) Substrate activity at mushroom tyrosinase assessed as Kcat/Km ratio for monophenolase activity in presence H2O2 by spectrophotometry based Michaelis-Menten plot analysis; conditions: Agaricus bisporus
[9] = substrate: CCc1ccc(O)cc1O; assay: as §1; conditions: Agaricus bisporus
[10] = substrate: Oc1ccccc1; assay: as §1; conditions: Agaricus bisporus
[11] = substrate: COc1ccc(O)cc1; assay: as §1; conditions: Agaricus bisporus
[12] = substrate: Cc1ccc(O)cc1O; assay: as §1; conditions: Agaricus bisporus
[13] = substrate: N[C@@H](Cc1ccc(O)cc1)C(=O)O; assay: as §1; conditions: Agaricus bisporus
[14] = substrate: Oc1ccc(O)cc1; assay: as §1; conditions: Agaricus bisporus
[15] = substrate: Cc1c(O)cccc1O; assay: as §1; conditions: Agaricus bisporus
[16] = substrate: CCOc1ccc(O)cc1; assay: as §1; conditions: Agaricus bisporus
[17] = substrate: Oc1cccc(O)c1; assay: (§2) Substrate activity at mushroom tyrosinase assessed as Kcat for monophenolase activity in presence H2O2 by spectrophotometry based Michaelis-Menten plot analysis; conditions: Agaricus bisporus
[18] = substrate: CCc1ccc(O)cc1O; assay: as §2; conditions: Agaricus bisporus
[19] = substrate: Oc1ccccc1; assay: as §2; conditions: Agaricus bisporus
[20] = substrate: COc1ccc(O)cc1; assay: as §2; conditions: Agaricus bisporus
[21] = substrate: Cc1ccc(O)cc1O; assay: as §2; conditions: Agaricus bisporus
[22] = substrate: N[C@@H](Cc1ccc(O)cc1)C(=O)O; assay: as §2; conditions: Agaricus bisporus
[23] = substrate: Oc1ccc(O)cc1; assay: as §2; conditions: Agaricus bisporus
[24] = substrate: Cc1c(O)cccc1O; assay: as §2; conditions: Agaricus bisporus
[25] = substrate: CCOc1ccc(O)cc1; assay: as §2; conditions: Agaricus bisporus
[26] = substrate: Oc1cccc(O)c1; assay: (§3) Substrate activity at mushroom tyrosinase assessed as Km for monophenolase activity in presence H2O2 by spectrophotometry based Michaelis-Menten plot analysis; conditions: Agaricus bisporus
[27] = substrate: CCc1ccc(O)cc1O; assay: as §3; conditions: Agaricus bisporus
[28] = substrate: Oc1ccccc1; assay: as §3; conditions: Agaricus bisporus
[29] = substrate: COc1ccc(O)cc1; assay: as §3; conditions: Agaricus bisporus
[30] = substrate: Cc1ccc(O)cc1O; assay: as §3; conditions: Agaricus bisporus
[31] = substrate: N[C@@H](Cc1ccc(O)cc1)C(=O)O; assay: as §3; conditions: Agaricus bisporus
[32] = substrate: Oc1ccc(O)cc1; assay: as §3; conditions: Agaricus bisporus
[33] = substrate: Cc1c(O)cccc1O; assay: as §3; conditions: Agaricus bisporus
[34] = substrate: CCOc1ccc(O)cc1; assay: as §3; conditions: Agaricus bisporus

With `Cc1ccc(O)cc1O` the IC50 (Tyrosinase [1]) was 9.31 µM, the inhibition [2] was “inactive” and the IC50 (Tyrosinase [3]) was 3.3 µM. The inhibition [4] was “Active” and the Activity [5] was “Active”.

`CCc1ccc(O)cc1O` was tested, and the IC50 (Tyrosinase [1]) was 1.9 µM, the inhibition [2] was “inactive” and the IC50 (Tyrosinase [3]) was 1.1 µM. For the same molecule, the inhibition [4] was “Active”, the inhibition [6] was “inactive” and the Activity [7] was “Active”. For the same molecule, the Activity [5] was “Active”.

`Cc1c(O)cccc1O` was tested, and the IC50 (Tyrosinase [1]) was 1420 µM, the IC50 (Tyrosinase [3]) was 717 µM and the Activity [7] was “Active”. The Activity [5] was “Active”.

With `Oc1cccc(O)c1` [RESORCINOL] the IC50 (Tyrosinase [1]) was 1130 µM, the inhibition [2] was “inactive” and the IC50 (Tyrosinase [3]) was 652 µM. For the same molecule, the inhibition [4] was “Active”, the Activity [7] was “Active” and the Activity [5] was “Active”.

B1: Tyrosinase (Agaricus bisporus), O42713 (protein)
chain: T1 sequence (O42713 whole entry)
B1 gave a kcat/Km [8] of 39900 M⁻¹ s⁻¹, a kcat/Km [9] of 51300 M⁻¹ s⁻¹ and a kcat/Km [10] of 18100 M⁻¹ s⁻¹. For the same molecule, the kcat/Km [11] was 2.3e+06 M⁻¹ s⁻¹, the kcat/Km [12] was 38100 M⁻¹ s⁻¹ and the kcat/Km [13] was 37600 M⁻¹ s⁻¹. The kcat/Km [14] was 110000 M⁻¹ s⁻¹, the kcat/Km [15] was 3700 M⁻¹ s⁻¹ and the kcat/Km [16] was 776000 M⁻¹ s⁻¹. For the same molecule, the kcat [17] was 18.3 s⁻¹, the kcat [18] was 6 s⁻¹ and the kcat [19] was 12.7 s⁻¹. For the same molecule, the kcat [20] was 184 s⁻¹, the kcat [21] was 7.73 s⁻¹ and the kcat [22] was 7.9 s⁻¹. It also gave a kcat [23] of 102 s⁻¹, a kcat [24] of 9.94 s⁻¹ and a kcat [25] of 132 s⁻¹. For the same molecule, the Km [26] was 460 µM, the Km [27] was 117 µM and the Km [28] was 700 µM. It also gave a Km [29] of 80 µM, a Km [30] of 203 µM and a Km [31] of 210 µM. The Km [32] was 920 µM, the Km [33] was 2700 µM and the Km [34] was 170 µM.
